Four molecules from article PMC3296934 (Frontiers in Molecular Neuroscience, 2012) can be followed below.

B1: GST-RK fragment F125-K175 (domain or fragment)
chain: FLDAETVARARAGAGDGLFQPLLRAVLAHLGQAPFQEFLDSLYFLRFLQWK
B2: GST-RK fragment M1-L102 (domain or fragment)
chain: MDFGSLETVVANSAFIAARGSFDASSGPASRDRKYLARLKLPPLSKCEALRESLDLGFEGMCLEQPIGKRLFQQFLRTHEQHGPALQLWKDIEDYDTADDAL
B3: GST fusion of the RK amino terminal region (N-RK: M1-G183) (domain or fragment)
chain: MDFGSLETVVANSAFIAARGSFDASSGPASRDRKYLARLKLPPLSKCEALRESLDLGFEGMCLEQPIGKRLFQQFLRTHEQHGPALQLWKDIEDYDTADDALRPQKAQALRAAYLEPQAQLFCSFLDAETVARARAGAGDGLFQPLLRAVLAHLGQAPFQEFLDSLYFLRFLQWKWLEAQPMG
B4: GST-RK fragment L102-G183 (domain or fragment)
chain: LRPQKAQALRAAYLEPQAQLFCSFLDAETVARARAGAGDGLFQPLLRAVLAHLGQAPFQEFLDSLYFLRFLQWKWLEAQPMG

This assay has as its target calmodulin (bovine, UniProt P62157 1-149). Nature of the assay: SPR.
With B1, binding was put at a Kd of 17 µM. In other words, the double-digit micromolar range.
In turn, B2 returned an equilibrium dissociation constant (Kd) of 54 µM.
As for B3, the figure is 63 µM; as for B4, 23 µM.
